The text below walks through data of publication PMC9609871, “Binding and Kinetic Analysis of Human Protein Phosphatase PP2A Interactions with Caspase 9 Protein and the Interfering Peptide C9h” (Pharmaceutics, 2022).

Where two headings read alike, the source gives them in different places.

The target in the assay is T1, PP2A (Homo sapiens, UniProt P67775).
T1 construct: purchased LSBio
As to the kind of experiment: BLI: PP2A analyte binding to immobilized Caspase 9 (Protein A biosensor, anti-Caspase 9). The method, then: Kinetic analysis was performed based on biolayer interferometry (BLI) by using a BLItz instrument (ForteBio, Bayonne, France) at room temperature. Prior to use, each biosensor was hydrated in sample diluent (SD: PBS1X, pH 7.0, 0.02% Tween 20, 0.1% BSA) for at least 10 min. Kinetic measurements of PP2A/Caspase 9 interactions were run with Protein A biosensors (Fortebio) and consisted of seven steps, all performed in reaction buffer, as follows: (i) initial baseline in 300 µL SD for 30 s was measured; (ii) 4 µL of mouse anti-Caspase 9 or rabbit anti-PP2A were immobilized on the sensor for 150 s at 133 nM; (iii) the immunosensor was washed with 300 µL SD for 120 s; (iv) 4 µL of purified ligand Caspase 9 at 566 nM (Origen) or PP2A at 694 nM (LSBio) were loaded on the immunosensor for 150 s; (v) the ligand-coated immunosensor was washed with 300 µL SD for 120 s; (vi) association of purified analytes diluted in SD at the mentioned concentrations was studied for 150 s in 4 µL; and (vii) dissociation step was then monitored in 300 µL SD for 120 s.
Experiments using empty immunosensors (no ligand loaded) were run as control. Sensorgrams were fit globally to a 1:1 binding model by BLItz Pro software, from which the association (kon) and dissociation (koff) rate constants and apparent affinities (KD) were calculated. […]
In general terms: In BLI a coated tip is dipped into the sample, and binding shifts an interference pattern.

T1 sequence (P67775 whole entry): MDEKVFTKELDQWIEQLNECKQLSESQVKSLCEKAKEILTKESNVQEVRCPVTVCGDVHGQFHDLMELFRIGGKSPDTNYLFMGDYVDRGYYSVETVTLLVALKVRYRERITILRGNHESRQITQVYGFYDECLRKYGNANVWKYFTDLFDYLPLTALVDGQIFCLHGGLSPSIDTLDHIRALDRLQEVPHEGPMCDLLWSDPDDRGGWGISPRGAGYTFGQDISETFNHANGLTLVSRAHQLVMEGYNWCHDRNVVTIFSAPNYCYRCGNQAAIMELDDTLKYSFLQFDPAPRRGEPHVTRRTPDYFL

B1: Caspase 9: purified Caspase 9 protein (Origen), cysteine protease, initiator of intrinsic apoptosis (protein)
chain: MDEADRRLLRRCRLRLVEELQVDQLWDALLSRELFRPHMIEDIQRAGSGSRRDQARQLIIDLETRGSQALPLFISCLEDTGQDMLASFLRTNRQAAKLSKPTLENLTPVVLRPEIRKPEVLRPETPRPVDIGSGGFGDVGALESLRGNADLAYILSMEPCGHCLIINNVNFCRESGLRTRTGSNIDCEKLRRRFSSLHFMVEVKGDLTAKKMVLALLELAQQDHGALDCCVVVILSHGCQASHLQFPGAVYGTDGCPVSVEKIVNIFNGTSCPSLGGKPKLFFIQACGGEQKDHGFEVASTSPEDESPGSNPEPDATPFQEGLRTFDQLDAISSLPTPSDIFVSYSTFPGFVSWRDPKSGSWYVETLDDIFEQWAHSEDLQSLLLRVANAVSVKGIYKQMPGCFNFLRKKLFFKTS
modifications: Commercial purified Caspase 9 (Origen)
With B1, the Kd is approximately 150 nM (discussion summary of PP2A/Caspase 9 BLI studies, in the range of, read-out: binding affinity of PP2A to Caspase 9) and approximately 100 nM (summary: close to, PP2A analyte on immobilized Caspase 9, read-out: affinity, both models).
